The text below walks through data of patent US20230159603A1 (published 2023).

For orientation: Kd means the free concentration of one partner at which half of the binding sites on the other are occupied at equilibrium, for simple one-to-one binding.

The chains are these.
B1: rhIL-12RB2-Fc (Fc fusion)
chain: KIDACKRGDVTVKPSHVILLGSTVNITCSLKPRQGCFHYSRRNKLILYKFDRRINFHHGHSLNSQVTGLPLGTTLFVCKLACINSDEIQICGAEIFVGVAPEQPQNLSCIQKGEQGTVACTWERGRDTHLYTEYTLQLSGPKNLTWQKQCKDIYCDYLDFGINLTPESPESNFTAKVTAVNSLGSSSSLPSTFTFLDIVRPLPPWDIRIKFQKASVSRCTLYWRDEGLVLLNRLRYRPSNSRLWNMVNVTKAKGRHDLLDLKPFTEYEFQISSKLHLYKGSWSDWSESLRAQTPEEEPTGMLDVWYMKRHIDYSRQQISLFWKNLSVSEARGKILHYQVTLQELTGGKAMTQNITGHTSWTTVIPRTGNWAVAVSAANSKGSSLPTRINIMNLCEAGLLAPRQVSANSEGMDNILVTWQPPRKDPSAVQEYVVEWRELHPGGDTQVPLNWLRSRPYNVSALISENIKSYICYEIRVYALSGDQGGCSSILGNSKHKAPLSGPHINAITEEKGSILISWNSIPVQEQMGCLLHYRIYWKERDSNSQPQLCEIPYRVSQNSHPINSLQPRVTYVLWMTALTAAGESSHGNEREFCLQGKAN
B2: recombinant human IL-12 (rhIL-12) control (ligand)
chain 1: IWELKKDVYVVELDWYPDAPGEMVVLTCDTPEEDGITWTLDQSSEVLGSGKTLTIQVKEFGDAGQYTCHKGGEVLSHSLLLLHKKEDGIWSTDILKDQKEPKNKTFLRCEAKNYSGRFTCWWLTTISTDLTFSVKSSRGSSDPQGVTCGAATLSAERVRGDNKEYEYSVECQEDSACPAAEESLPIEVMVDAVHKLKYENYTSSFFIRDIIKPDPPKNLQLKPLKNSRQVEVSWEYPDTWSTPHSYFSLTFCVQVQGKSKREKKDRVFTDKTSATVICRKNASISVRAQDRYYSSSWSEWASVPCS
chain 2: RNLPVATPDPGMFPCLHHSQNLLRAVSNMLQKARQTLEFYPCTSEEIDHEDITKDKTSTVEACLPLELTKNESCLNSRETSFITNGSCLASRKTSFMMALCLSSIYEDLKMYQVEFKTMNAKLLMDPKRQIFLDQNMLAVIDELMQALNFNSETVPQKSSLEEPDFYKTKIKLCILLHAFRIRAVTIDRVMSYLNAS

Holding throughout (assay): SPR; KD estimated
In assay [1] the target is AK384.
Assay [2] concerns the target rhIL-12RB1-Fc (human, UniProt P42701 24-545).
Assay [3] deals with B1.

Regarding B1, in assay [1], the Kd was 1.7 nM.

In the case of B2, the Kd in assay [2] was 60.1 nM; in assay [3], 0.617 nM.
